# In patent US11780902B1, “Receptor/histidine kinase fusion constructs and uses thereof” (priority 2018, dated 2023):
# Positions count from the first letter of the chain named.
# B1: Tac8: TrzChim3-8 with the chemotactic receptor Tar replacing the chemotactic receptor Trg, SEQ ID NO:22 (protein)
# chain: MINRIRVVTLLVMVLGVFALLQLISGSLFFSSLHHSQKSFVVSNQLREQQGELTSTWDLMLQTRINLSRSAVRMMMDSSNQQSNAKVELLDSARKTLAQAATHYKKFKSMAPLPEMVATSRNIDEKYKNYYTALTELIDYLDYGNTGAYFAQPTQGMQNAMGERFAQYALSSEKLYRDIVTDNADDYRFAQWQLAVIALVVVLILLVAWYGIRRMLLTPLAKIIAHIREIAGGNLANTLTIDGRSEMGDLAQSVSHMAAGVKQLRGVRTLLMAGVSHDLRTPLTVLQGYLEMMNEQPLEGAVREKALHTMREQTQRMNAIIEQFIDYLRTGQEMPMEMADLNAVLGEVIAAESGYEREIETALYPGSIEVKMHPLSIKRAVANMVVNAARYGNGWIKVSSGTEPNRAWFQVEDDGPGIAPEQRKHLFQPFVRGDSARTISGTGLGLAIVQRIVDNHNGMLELGTSERGGLSIRAWLPVPVTRAQGTTKEG
# modifications: Fusion protein
# B2: Tac40: Maltose inducible directed evolution variant of Tac8, SEQ ID NO:24 (protein)
# chain: B1 chain with R265V, G266W, V267R
# modifications: Fusion protein
# B3: TazPhoR 61: Maltose inducible directed evolution variant of TazPhoR, SEQ ID NO:18 (protein)
# chain: MKLLSKTFLILTLTFFFFGIALAKMINRIRVVTLLVMVLGVFALLQLISGSLFFSSLHHSQKSFVVSNQLREQQGELTSTWDLMLQTRINLSRSAVRMMMDSSNQQSNAKVELLDSARKTLAQAATHYKKFKSMAPLPEMVATSRNIDEKYKNYYTALTELIDYLDYGNTGAYFAQPTQGMQNAMGEAFAQYALSSEKLYRDIVTDNADDYRFAQWQLAVIALVVVLILLVAWYGIRRMLLTPLAKIIAHIREIAGGNLANTLTIDGRSEMGDLAQSVSHMAAGVKQLRRNFFANVSHELRTPLTVLQGYLEMMNEQPLEGAVREKALHTMREQTQRMEGLVKQLLTLSKIEAAPTHLLNEKVDVPMMLRVVEREAQTLSQKKQTFTFEIDNGLKVSGNEDQLRSAISNLVYNAVNHTPEGTHITVRWQRVPHGAEFSVEDNGPGIAPEHIPRLTERFYRVDKARSRQTGGSGLGLAIVKHAVNHHESRLNIESTVGKGTRFSFVIPERLIAKNSD
# modifications: Fusion protein
# B4: TrzPhoR: coiled coil based fusion of Trz (Trg chemotactic receptor/EnvZ histidine kinase fusion) to PhoR histidine kinase, SEQ ID NO:2 (protein)
# chain: MNTTPSQRLGFLHHIRLVPLFACILGGILVLFALSSALAGYFLWQADRDQRDVTAEIEIRTGLANSSDFLRSARINMIQAGAASRIAEMEAMKRNIAQAESEIKQSQQGYRAYQNRPVKTPADEALDTELNQRFQAYITGMQPMLKYAKNGMFEAIINHESEQIRPLDNAYTDILNKAVKIRSTRANQLAELAHQRTRLGGMFMIGAFVLALVMTLITFMVLRRIVIRPLQHAAQRIEKIASGDLTMNDEPAGRNEIGRLSRHLQHMAAGVKQLEGARRNFFANVSHELRTPLTVLQGYLEMMNEQPLEGAVREKALHTMREQTQRMEGLVKQLLTLSKIEAAPTHLLNEKVDVPMMLRVVEREAQTLSQKKQTFTFEIDNGLKVSGNEDQLRSAISNLVYNAVNHTPEGTHITVRWQRVPHGAEFSVEDNGPGIAPEHIPRLTERFYRVDKARSRQTGGSGLGLAIVKHAVNHHESRLNIESTVGKGTRFSFVIPERLIAKNSD
# B5: PhoQTrzPhoR: Mg^2+ responsive PhoQ receptor fused to TrzPhoR at the D position, SEQ ID NO:40 (protein)
# chain: MPGRSKWYRRWRPRSLQARQLLAASLSLVAFLALAGYALDVAFADTAEKNLRERLKNYASAYAANIDFVRDGSLYIGGQPPDPRFDVPGGGLYVEVVRPDESWTSMSAEGPNIPHGRMLEPRQEEFIGPLEMTQIDGSLGQLYRYGLGVSYVEREHGGEIPYTIYVMEDARSMGAQLRVFRGAVWFYLGSAGVVLLVLQAFILQWSLRPLRRVINELTKVQRGEIQRMSEQHPRELEPLTDSINAFIESVKQLEGARRNFFANVSHELRTPLTVLQGYLEMMNEQPLEGAVREKALHTMREQTQRMEGLVKQLLTLSKIEAAPTHLLNEKVDVPMMLRVVEREAQTLSQKKQTFTFEIDNGLKVSGNEDQLRSAISNLVYNAVNHTPEGTHITVRWQRVPHGAEFSVEDNGPGIAPEHIPRLTERFYRVDKARSRQTGGSGLGLAIVKHAVNHHESRLNIESTVGKGTRFSFVIPERLIAKNSD
# modifications: Fusion protein
# B6: TazPhoR: TrzPhoR fusion with the Tar chemotactic receptor replacing the Trg chemotactic receptor, SEQ ID NO:16 (protein)
# chain: MKLLSKTFLILTLTFFFFGIALAKMINRIRVVTLLVMVLGVFALLQLISGSLFFSSLHHSQKSFVVSNQLREQQGELTSTWDLMLQTRINLSRSAVRMMMDSSNQQSNAKVELLDSARKTLAQAATHYKKFKSMAPLPEMVATSRNIDEKYKNYYTALTELIDYLDYGNTGAYFAQPTQGMQNAMGEAFAQYALSSEKLYRDIVTDNADDYRFAQWQLAVIALVVVLILLVAWYGIRRMLLTPLAKIIAHIREIAGGNLANTLTIDGRSEMGDLAQSVSHMAAGVKQLEGARRNFFANVSHELRTPLTVLQGYLEMMNEQPLEGAVREKALHTMREQTQRMEGLVKQLLTLSKIEAAPTHLLNEKVDVPMMLRVVEREAQTLSQKKQTFTFEIDNGLKVSGNEDQLRSAISNLVYNAVNHTPEGTHITVRWQRVPHGAEFSVEDNGPGIAPEHIPRLTERFYRVDKARSRQTGGSGLGLAIVKHAVNHHESRLNIESTVGKGTRFSFVIPERLIAKNSD
# modifications: Fusion protein
# B7: TazPhoR 86: Maltose inducible directed evolution variant of TazPhoR, SEQ ID NO:20 (protein)
# chain: B6 chain with E289R, G290V, A291W
# modifications: Fusion protein
# B8: Taz: Tar chemotactic receptor fused to EnvZ histidine kinase at conserved HAMP domain, SEQ ID NO:38 (protein)
# chain: MINRIRVVTLLVMVLGVFALLQLISGSLFFSSLHHSQKSFVVSNQLREQQGELTSTWDLMLQTRINLSRSAVRMMMDSSNQQSNAKVELLDSARKTLAQAATHYKKFKSMAPLPEMVATSRNIDEKYKNYYTALTELIDYLDYGNTGAYFAQPTQGMQNAMGERFAQYALSSEKLYRDIVTDNADDYRFAQWQLAVIALVVVLILLVAWYGIRRMLLTPLAKIIAHIREIAGGNLANTLTIDGRSEMGDLAQSVSHMAAGVKQLADDRTLLMAGVSHDLRTPLTRIRLATEMMSEQDGYLAESINKDIEECNAIIEQFIDYLRTGQEMPMEMADLNAVLGEVIAAESGYEREIETALYPGSIEVKMHPLSIKRAVANMVVNAARYGNGWIKVSSGTEPNRAWFQVEDDGPGIAPEQRKHLFQPFVRGDSARTISGTGLGLAIVQRIVDNHNGMLELGTSERGGLSIRAWLPVPVTRAQGTTKEG
# modifications: Fusion protein
# Assays:
# [1] = test system: GFP reporter gene; assay: Maltose / aspartate induction of Tar HK fusions, GFP reporter gene fluorescence, FACS screen; format: cell-based, E. coli; conditions: for maltose inducibility: maltose via MBP
# [2] = test system: PhoB responsive promoter driving a β-galactosidase reporter gene; conditions: E. coli BW23423; maltose control vs ribose; X-Gal; functional = off without ligand, on with ligand
# [3] = test system: plant pho promoter: luciferase reporter gene; assay: Luciferase reporter in transgenic Arabidopsis, circuit RBP→TrzPhoR→PhoBVP64, exposure to ribose; format: in vivo; conditions: 0 hours vs 24 hours after exposure to ribose
# Experimental: FIG. 9A and FIG. 9B. Imaging of a luciferase gene reporter in transgenic Arabidopsis with the signaling circuit Ribose Binding Protein (RBP)→TrzPhoR→PhoBVP64 activating a plant pho promoter: luciferase reporter gene FIG. 9A. Four transgenic Arabidopsis lines at 0 hours (no exposure to ribose) top panel and 24 hours after exposure to ribose bottom panel. FIG. 9B. Quantification of luciferase activity from FIG. 9A.
# Because the ground state of a histidine kinase is such that the kinase is active, “kinase on” and the predominate signaling phenotype seen in non-functional fusions is “kinase on,” the inventors reasoned that the valine at the D position is essential in maintaining the “kinase off” state in the absence of ligand dependent signaling. Fusions where the D position valine is replaced by alanine, glycine (the two hydrophobic amino acids smaller than valine) or a methionine (the D position residue of PhoR) results in constitutive activation (FIG. 8). E. coli has 10 HKs, including EnvZ, with HAMP domains adjacent to the HK coiled coil (FIG. 8). EnvZ is the only HK with a valine in the A/D position. There are 4 other amino acids, glutamate, isoleucine, leucine and threonine that occupy the A/D position in the 9 other E. coli HKs with a HAMP/HK coiled coil A/D overlap. […]
# [4] = test system: PhoB responsive promoter driving a β-galactosidase reporter gene; format: cell-based, E. coli
# [5] = cited from earlier work
molecule,measurement,setting,value
B1,aspartate inducibility,[1],aspartate inducibility of both fusions was observed
same,maltose inducibility,[1],no maltose inducibility
B2,maltose inducibility,[1],Maltose inducible
B3,maltose inducibility,[1],Maltose inducible
B4,signaling phenotype of the fusion (ribose inducible β-galactosidase activity),[2],functional
same,function in the plant detector system (luciferase activity),[3],highly functional
B5,Mg^2+ signaling (β-galactosidase activity),[4],increase in Mg^2+ signaling
B6,aspartate inducibility,[1],aspartate inducibility of both fusions was observed
same,maltose inducibility,[1],no maltose inducibility
B7,maltose inducibility,[1],Maltose inducible
B8,induction by aspartate,[5]; aspartate,retains the ability to be induced by aspartate
same,response to maltose,[5]; maltose,no longer shows a response to maltose
